Measured values reported in patent publication US20210284724A1 (I MAB BIOPHARMA US, published 2021).
Numbering of substitutions follows the chain as printed.

Columns and labels:
human CXCL13 [1] = target: T1, human CXCL13 (human, UniProt O43927 23-109); experiment: cell-based blocking assay, CXCL13 to CXCR5 cells
T1 construct: also called huCXCL13; rhCXCL13
T1 sequence (looked up): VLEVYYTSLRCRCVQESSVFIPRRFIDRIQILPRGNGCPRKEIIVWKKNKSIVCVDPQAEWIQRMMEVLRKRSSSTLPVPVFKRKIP
Outline: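 To obtain IC50, a titration of humanized Fabs was tested against human CXCL13 binding to CHO-K1 cells expressing CXCR5. The cells (5×10⁴/well) were plated overnight at 37° C, fixed with 2% PFA and blocked with 1% BSA in PBST, then given 100 μl of Fab mixed with an equal volume of 0.3 μg/ml CXCL13 after a 30 min pre-incubation at room temperature. After 30 min on the cells and three PBST washes, bound CXCL13 was captured with 3 μg/ml human anti-CXCL13 antibody, detected with anti-human Fc-HRP and read at 450 nm.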

human CXCL13 [2] = target: T1, human CXCL13; experiment: ELISA binding, Fab
human CXCL13 [3] = target: T1, human CXCL13; experiment: SPR Biacore 8K, Fab over immobilised CXCL13
Description: HuCXCL13 binding affinity by Surface Plasmon Resonance. 411A11E9, 415A3D1, 64C10G1, 21H12D9, 329F2E1, 71F4A3 were selected to produce Fab and tested binding affinity. The binding of the antibodies to huCXCL13 was examined by Biacore 8K. 10 mM HEPES, 150 mM NaCl, 3 mM EDTA, 0.05% Tween-20, pH 7.4 served as running buffer and 10 mM glycine-HCl, pH2.0 served as regeneration buffer. CXCL13 protein was immobilized on Sensor Chip CM5 using amine coupling method (immobilization level ˜30RU). The serial concentrations of Fab (0-16 nM) were injected over immobilized CXCL13 at the flow rate of 30 μl/min. The dissociation phases were 600s.

human CXCL13 [4] = target: T1, human CXCL13; experiment: SPR Biacore, off-rate ranking of Fabs
human CXCL13 [5] = target: T1, human CXCL13; experiment: SPR Biacore 8K, Fab over immobilised CXCL13; remark: listed apart in the source
Description: Among all humanized Fab samples, 71F4A3-VH2VL1, 71F4A3-VH1VL1 (Hz71F4), 71F4A3-VH1VL2, 71F4A3-VH3VL1, 411A11E9-VH1VL4, 411A11E9-VH3VL4, 411A11E9-VH2VL4, 411A11E9-VH3VL2, 411A11E9-VH1VL2, 21H12D9-VH1VL1, 21H12D9-VH2VL2, 21H12D9-VH3VL3, 21H12D9-VH1VL2, 64C10G1-VH1VL3, 64C10G1-VH1VL4, 64C10G1-VH1VL1, 64C10G1-VH1VL2 were selected to test affinity by Biacore 8K. 10 mM HEPES, 150 mM NaCl, 3 mM EDTA, 0.05% Tween-20, pH 7.4 served as running buffer and 10 mM glycine-HCl, pH2.0 served as regeneration buffer. CXCL13 protein were immobilized on Sensor Chip CM5 using amine coupling method (immobilization level ˜250RU). The serial concentrations of Fab (0-20 nM) were injected over immobilized CXCL13 at the flow rate of 30 μl/min. The dissociation phases were 600s.

human CXCL13 [6] = target: T1, human CXCL13; experiment: SPR Biacore T200
Text: In the first approach, mutations were chosen to target the hotspots in LCDR1, HCDR2 and HCDR3. Usually, CDR3 contributes most to antigen binding and heavy chain is more important than light chain for antigen binding. Moreover, LCDR1 is important for antigen binding. For the first trial, random mutations were targeted to hotspots in LCDR1, HCDR2 and HCDR3. Eliminate hotspots that code for conserved and buried amino acids in CDRs. […] After finishing construction of phage library, antigen CXCL13 screening was followed. Antibodies of these sequences were generated, and affinity testing was performed by Biacore T200.

B1: 71F4A3 chimeric Fab (Fab, V domains shown)
VH: EVKLLQSGGGLVQPGGSLKLSCAASGIDFSRYWMSWVRRAPGKGLEWIGEINPDSSTINYAPSLKDKFIISRDNAKNTLYLQMSKVRSEDTALYYCARQDDYEYYAMDYWGQGTSVTVSS
VL: DIVMTQSHKSMSTSVGDRVSITCKASQDVNTGVAWYRQKPGQSPKLLIYSASYRYTGVPDRFTGSGSGTDFTFTISSVQAEDLAVYYCQQYYSTPLTFGAGTKLELK
notes: Fab
B1 was tested, and the IC50 (human CXCL13 [1]) was 5070 pM, the EC50 (human CXCL13 [2]) was 1490 pM and the Kd (human CXCL13 [3]) was 154 pM. The koff (human CXCL13 [3]) was 0.000285 s⁻¹, the kon (human CXCL13 [3]) was 1.85e+06 M⁻¹ s⁻¹ and the Kd (human CXCL13 [4]) was 556 pM. It also gave a koff (human CXCL13 [4]) of 0.00184 s⁻¹, a kon (human CXCL13 [4]) of 3.3e+06 M⁻¹ s⁻¹ and a Kd (human CXCL13 [5]) of 782 pM. It also gave a koff (human CXCL13 [5]) of 0.00141 s⁻¹ and a kon (human CXCL13 [5]) of 1.8e+06 M⁻¹ s⁻¹.

B2: 71F4-4B12 (antibody, V domains shown)
VH: EVQLVESGGGLVQPGGSLRLSCAASGIDFSRYWMSWVRQAPGKGLEWVAEINPERNYINYAPSLKDRFTISRDNAKNSLYLQMNSLRAEDTAVYYCARQDDYDKYAMDYWGQGTTVTVSS
VL: DIQMTQSPSSLSASVGDRVTITCKASQDVNTGVTWYQQKPGKAPKLLIYSASYRYTGVPSRFSGSGSGTDFTFTISSLQPEDIATYYCQQYYSTPLTFGGGTKLEIK
notes: not certain; also called 71F4A3-B12
B2 gave a kon (human CXCL13 [6]) of 5.36e+06 M⁻¹ s⁻¹.

B3: 71F4A3-3F12 (antibody, V domains shown)
VH: B2 VH with R55S, Y57F, D103S, K104V
VL: B2 VL with Y36F
notes: also called 71F4-3F12
B3 gave a kon (human CXCL13 [6]) of 6.3e+06 M⁻¹ s⁻¹.

B4: 71F4A3-BD12 (antibody, V domains shown)
VH: B2 VH with R55T, N56T, Y57I, D103R, K104H
VL: B2 VL with T34A, Y36F
notes: also called 71F4-BD12
B4 was tested, and the kon (human CXCL13 [6]) was 1.9e+06 M⁻¹ s⁻¹.

B5: 71F4A3-5A4 (antibody, V domains shown)
VH: B2 VH with R55S, N56T, Y57G, D103W, K104T
VL: B2 VL with G32A, T34S, Y36T
notes: also called 71F4-5A4
B5 showed a kon (human CXCL13 [6]) of 6.58e+06 M⁻¹ s⁻¹.

B6: 71F4A3-BC4 (antibody, V domains shown)
VH: B2 VH with R55A, N56G, Y57K, I58W, D103T, K104T
VL: B2 VL with T34S
notes: also called 71F4-BC4
B6 was tested, and the kon (human CXCL13 [6]) was 362000 M⁻¹ s⁻¹.

B7: 71F4A3-4H1 (antibody, V domains shown)
VH: B2 VH with R55S, N56T, Y57L, D103R, K104N
VL: B2 VL with T34S, Y36F
notes: also called 71F4-4H1
B7 showed a kon (human CXCL13 [6]) of 1.64e+07 M⁻¹ s⁻¹.

B8: 71F4A3-BE3 (antibody, V domains shown)
VH: B2 VH with R55S, N56S, Y57T, D103L, K104T
VL: B2 VL with G32A, T34D, Y36F
notes: also called 71F4-BE3
B8 was tested, and the kon (human CXCL13 [6]) was 1.03e+06 M⁻¹ s⁻¹.

B9: 71F4A3-VH3VL1 (Fab, V domains shown)
VH: B2 VH with E6Q, A49G, E54D, R55S, N56S, Y57T, L86V, D103E, K104Y
VL: B2 VL with T34A
notes: Humanized Fab, human gamma 1 and kappa constant domains
Binder B9 has an IC50 (human CXCL13 [1]) of 11300 pM, an EC50 (human CXCL13 [2]) of 574 pM and a Kd (human CXCL13 [4]) of 462 pM. It also gave a koff (human CXCL13 [4]) of 0.000987 s⁻¹, a kon (human CXCL13 [4]) of 2.14e+06 M⁻¹ s⁻¹ and a Kd (human CXCL13 [5]) of 934 pM. The koff (human CXCL13 [5]) was 0.00153 s⁻¹ and the kon (human CXCL13 [5]) was 1.64e+06 M⁻¹ s⁻¹.

B10: 71F4A3-BC1 (antibody, V domains shown)
VH: B2 VH with R55A, N56S, Y57S, D103S, K104H
VL: B2 VL with T34S, Y36S
notes: also called 71F4-BC1
In the case of B10, the kon (human CXCL13 [6]) is reported as 2.09e+06 M⁻¹ s⁻¹.
